Where a SMILES comes first, the peptide text is derived from it. [ ]: non-standard residue; d: D form. The star is where a group is joined. Dolaproine = CO[C@@H]([C@@H]1CCCN1)[C@@H](C)C(=O)O; Dil = CC[C@H](C)[C@H](NC)[C@@H](CC(=O)O)OC; X1 = C[C@@H](N*)[C@@H](O)c1ccccc1; NMeV = CN[C@H](C(=O)O)C(C)C
Tests used:
[1] = tested on: HT-29 cells; assay: CellTiter-Glo inhibition of cell proliferation and survival, HT-29; format: cell-based, human; details: HT-29 cell line
Description: (§1) The antibody drug conjugates were tested against four endogenous cancer cell lines and one isogenic cell line engineered to overexpress the target of interest. FaDu (ATCC No. HTB-43 cultured in Eagle's Minimum Essential Medium+10% FBS), HCC70 (ATCC No. CRL-2315 cultured in RPMI-1640+10% FBS), HCC1954 (ATCC No. CRL-2338 cultured in RPMI-1640+10% FBS) and HT-29 (ATCC No. HTB-38 cultured in McCoy's 5a Medium Modified+10% FBS). The HT-29 cell line was transfected to generate a stable HT-29 cell line expressing the exogenous protein of interest, P-cadherin, HT-29 PCAD+(cultured in McCoy's 5a Medium Modified+10% FBS).
(§2) The ability of the P-cadherin linker variant antibody drug conjugates to inhibit cell proliferation and survival was assessed using the Promega CellTiter-Glo® proliferation assay.
(§3) The cell lines were cultured in media that is optimal for their growth at 5% CO2, 37° C. in a tissue culture incubator. […] Cell viability and cell density were determined using a cell counter (Vi-Cell XR Cell Viability Analyzer, Beckman Coulter). […] Plates were incubated at 5% CO2, 37° C. for 5 days in a tissue culture incubator, after which cell viability was assessed through the addition of 25 μL of CellTiter Glo® (Promega, cat #G7573), a reagent which lyses cells and measures total adenosine triphosphate (ATP) content. […]

[2] = tested on: HCC1954 cells; assay: CellTiter-Glo inhibition of cell proliferation and survival, HCC1954; format: cell-based, human; details: HCC-1954 cell line
Description: as §1, §2, §3

[3] = tested on: FaDu cells; assay: CellTiter-Glo inhibition of cell proliferation and survival, FaDu; format: cell-based, human; details: FaDu cell line
Description: as §1, §2, §3

[4] = tested on: HCC70 cells; assay: CellTiter-Glo inhibition of cell proliferation and survival, HCC70; format: cell-based, human; details: HCC-70 cell line
Description: as §1, §2, §3

[5] = target: P-cadherin, exogenous, stably expressed on HT-29 PCAD+ cells (UniProt P22223 108-829, limits assumed); assay: cell-based or functional assay
Chain of P-cadherin, exogenous, stably expressed on HT-29 PCAD+ cells (P22223 108-829 limits assumed): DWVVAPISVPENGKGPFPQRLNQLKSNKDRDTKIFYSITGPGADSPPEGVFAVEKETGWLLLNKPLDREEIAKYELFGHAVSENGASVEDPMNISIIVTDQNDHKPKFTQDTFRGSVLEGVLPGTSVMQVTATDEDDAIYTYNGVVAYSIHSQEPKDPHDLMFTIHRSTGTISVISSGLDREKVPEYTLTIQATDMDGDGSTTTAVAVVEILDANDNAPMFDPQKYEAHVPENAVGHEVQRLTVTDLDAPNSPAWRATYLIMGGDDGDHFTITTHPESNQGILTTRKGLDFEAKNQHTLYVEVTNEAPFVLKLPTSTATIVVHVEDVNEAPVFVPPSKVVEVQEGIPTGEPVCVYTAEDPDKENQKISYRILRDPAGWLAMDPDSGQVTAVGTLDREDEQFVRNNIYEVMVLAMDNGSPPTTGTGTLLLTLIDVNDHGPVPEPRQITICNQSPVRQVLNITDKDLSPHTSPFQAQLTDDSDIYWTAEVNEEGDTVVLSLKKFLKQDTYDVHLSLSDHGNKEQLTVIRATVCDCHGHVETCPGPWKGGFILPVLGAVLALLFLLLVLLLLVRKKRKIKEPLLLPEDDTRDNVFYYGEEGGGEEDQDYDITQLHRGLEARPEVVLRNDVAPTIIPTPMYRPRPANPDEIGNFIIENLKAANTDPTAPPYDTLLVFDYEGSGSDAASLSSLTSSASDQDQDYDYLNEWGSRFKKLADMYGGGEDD

[6] = target: P-cadherin, endogenous, on HCC70 human triple negative breast cancer cells (human, UniProt P22223 108-829); assay: cell-based or functional assay
Chain of P-cadherin, endogenous, on HCC70 human triple negative breast cancer cells (P22223 108-829): as the sequence (P22223 108-829 limits assumed) above

[7] = value from an individual representative assay

Work on `CC[C@H](C)[C@@H]([C@@H](CC(=O)N1CCC[C@H]1[C@H](OC)[C@@H](C)C(=O)N[C@H](C)[C@@H](O)c1ccccc1)OC)N(C)C(=O)[C@@H](NC(=O)[C@@H](NC)C(C)C)C(C)C` [Free MMAE, monomethyl auristatin E, reference compound] (H-[NMeV]V[Dil][Dolaproine]-X1) yielded an Amax [1] of 102.30, an IC50 [1, 7] of 0.012 nM and an Amax [2] of 65.26. It also gave an IC50 [2, 7] of 0.056 nM, an Amax [3] of 108.80 and an IC50 [3, 7] of 0.032 nM. It also gave an Amax [4] of 49.22 and an IC50 [4, 7] of 0.022 nM.

B1: P-Cad mab2-L1-P1 (antibody, V domains shown)
VH: QVQLQQSGPGLVKPSQTLSLTCAISGDSVSSQSAAWNWIRQSPSRGLEWLGRIYYRSKWYNDYALSVKSRITINPDTSKNQFSLQLNSVTPEDTAVYYCARGEGYGREGFAIWGQGTLVTVSS
VL: DIQMTQSPSSLSASVGDRVTITCRASQTISNTLAWYQQKPGKAPKLLIYAASNLQSGVPSRFSGSGSGTDFTLTISSLQPEDFATYYCQQYLSWFTFGQGTKVEIK
modifications: maleimide linker-drug L1-P1 on engineered Cys residues of the constant regions (positions not stated), DAR 3.8
For B1, the “Amax, inhibition of cell proliferation and survival (CellTiter-Glo, 5 days), HT-29 PCAD+ cells” value (shortened to “Amax, inhibition … HT-29 PCAD+ cells”) [5] was 90, the “IC50 (nM), inhibition of cell proliferation and survival (CellTiter-Glo, 5 days), HT-29 PCAD+ cells” value (“IC50 (nM), inhibition … HT-29 PCAD+ cells” for short) [5] was 0.077 nM and the “Amax, inhibition of cell proliferation and survival (CellTiter-Glo, 5 days), HCC70 cells” value (“Amax, inhibition … HCC70 cells” for short) [6] was 65.1. For the same molecule, the “IC50 (nM), inhibition of cell proliferation and survival (CellTiter-Glo, 5 days), HCC70 cells” value (shortened to “IC50 (nM), inhibition … HCC70 cells”) [6] was 0.237 nM.

B2: P-Cad mab2-L6-P1 (antibody, V domains shown)
VH: B1 VH
VL: B1 VL
modifications: maleimide linker-drug L6-P1 on engineered Cys residues of the constant regions (positions not stated), DAR 3.8
In the case of B2, the “Amax, inhibition … HT-29 PCAD+ cells” value [5] is reported as 102, the “IC50 (nM), inhibition … HT-29 PCAD+ cells” value [5] is reported as 0.069 nM and the “Amax, inhibition … HCC70 cells” value [6] is reported as 80.2. The “IC50 (nM), inhibition … HCC70 cells” value [6] was 0.209 nM.

B3: P-Cad mab2-L5-P1 (antibody, V domains shown)
VH: B1 VH
VL: B1 VL
modifications: maleimide linker-drug L5-P1 on engineered Cys residues of the constant regions (positions not stated), DAR 3.7
With B3 the “Amax, inhibition … HT-29 PCAD+ cells” value [5] was 91.6, the “IC50 (nM), inhibition … HT-29 PCAD+ cells” value [5] was 0.075 nM and the “Amax, inhibition … HCC70 cells” value [6] was 65.9. For the same molecule, the “IC50 (nM), inhibition … HCC70 cells” value [6] was 0.32 nM.

B4: P-Cad mab2-L4-P1 (antibody, V domains shown)
VH: B1 VH
VL: B1 VL
modifications: maleimide linker-drug L4-P1 on engineered Cys residues of the constant regions (positions not stated), DAR 3.9
In the case of B4, the “Amax, inhibition … HT-29 PCAD+ cells” value [5] is reported as 86.2, the “IC50 (nM), inhibition … HT-29 PCAD+ cells” value [5] is reported as 0.117 nM and the “Amax, inhibition … HCC70 cells” value [6] is reported as 57.2. The “IC50 (nM), inhibition … HCC70 cells” value [6] was 0.467 nM.

B5: P-Cad mab2-L3-P1 (antibody, V domains shown)
VH: B1 VH
VL: B1 VL
modifications: maleimide linker-drug L3-P1 on engineered Cys residues of the constant regions (positions not stated), DAR 4.0
For B5, the “Amax, inhibition … HT-29 PCAD+ cells” value [5] was 86.8, the “IC50 (nM), inhibition … HT-29 PCAD+ cells” value [5] was 0.083 nM and the “Amax, inhibition … HCC70 cells” value [6] was 105. The “IC50 (nM), inhibition … HCC70 cells” value [6] was 1.35 nM.

B6: PCAD-mab2-L7-P2 (antibody, V domains shown)
VH: B1 VH
VL: B1 VL
modifications: linker-drug L7-P2 (structure and conjugation not described in the filing)
For B6, the “Amax, inhibition … HCC70 cells” value [6] was 171 and the “IC50 (nM), inhibition … HCC70 cells” value [6] was 0.004 nM.

B7: P-Cad mab2-L2-P1 (antibody, V domains shown)
VH: B1 VH
VL: B1 VL
modifications: maleimide linker-drug L2-P1 on engineered Cys residues of the constant regions (positions not stated), DAR 3.9
B7 was tested, and the “Amax, inhibition … HT-29 PCAD+ cells” value [5] was 83.9, the “IC50 (nM), inhibition … HT-29 PCAD+ cells” value [5] was 0.098 nM and the “Amax, inhibition … HCC70 cells” value [6] was 51. The “IC50 (nM), inhibition … HCC70 cells” value [6] was 0.336 nM.

From patent publication US20230091510A1, “ANTIBODY DRUG CONJUGATES HAVING LINKERS COMPRISING HYDROPHILIC GROUPS” (priority 2019, published 2023)
